Measured values as given in the DeepSol protein solubility set.

test: soluble on expression in E. coli; label from the status in PepcDB or PDB records

Sequence	soluble on expression in E. coli
MKFLPYIFLLCCGLWSTISFADEDYIEYRGISSNNRVTLDPLRLSNKELRWLASKKNLVIAVHKSQTATLLHTDSQQRVRGINADYLNLLKRALNIKLTLREYADHQKAMDALAEGEVDIVLSHLVTSPPLNNDIAATKPLIITFPALVTTLHDSMRPLTSPKPVNIARVANYPPDEVIHQSFPKATIISFTNLYQALASVSAGHNDYFIGSNIITSSMISRYFTHSLNVVKYYNSPRQYNFFLTRKESVILNEVLNRFVDALTNEVRYEVSQNWLDTGNLAFLNKPLELTEHEKQWIKQHPNLKVLENPYSPPYSMTDENGSVRGVMGDILNIITLQTGLNFSPITVSHNIHAGTQLSPGGWDIIPGAIYSEDRENNVLFAEAFITTPYVFVMQKAPDSEQTLKKGMKVAIPYYYELHSQLKEMYPEVEWIQVDNASAAFHKVKEGELDALVATQLNSRYMIDHYYPNELYHFLIPGVPNASLSFAFPRGEPELKDIINKALNAIPPSEVLRLTEKWIKMPNVTIDTWDLYSEQFYIVTTLSVLLVGSSLLWGFYLLRSVRRRKVIQGDLENQISFRKALSDSLPNPTYVVNWQGNVISHNSAFEHYFTADYYKNAMLPLENSDSPFKDVFSNAHEVTAETKENRTIYTQVFEIDNGIEKRCINHWHTLCNLPASDNAVYICGWQDITETRDLINALEVEKNKAIKATVAKSQFLATMSHEIRTPISSIMGFLELLSGSGLSKEQRVEAISLAYATGQSLLGLIGEILDVDKIESGNYQLQPQWVDIPTLVQNTCHSFGAIAASKSIALSCSSTFPEHYLVKIDPQAFKQVLSNLLSNALKFTTEGAVKITTSLGHIDDNHAVIKMTIMDSGSGLSQEEQQQLFKRYSQTSAGRQQTGSGLGLMICKELIKNMQGDLSLESHPGIGTTFTITIPVEISQQVATVEAKAEQPITLPEKLSILIADDHPTNRLLLKRQLNLLGYDVDEATDGVQALHKVSMQHYDLLITDVNMPNMDGFELTRKLREQNSSLPIWGLTANAQANEREKGLSCGMNLCLFKPLTLDVLKTHLSQLHQVAHIAPQYRHLDIEALKNNTANDLQLMQEILMTFQHETHKDLPAAFQALEAGDNRTFHQCIHRIHGAANILNLQKLINISHQLEITPVSDDSKPEILQLLNSVKEHIAELDQEIAVFCQKND	not soluble
MGSDKIHHHHHHMNGNIIVAHGMRHGRQNQALEAFISELVKDDIHHYDIAFLESEHQDLETVMTTLIQSGVDHFKIVPLLIFSAMHYLKDIPNIVHEMKRRYPDIKVEVSEPLGTHPLMRRLIEQRICDALAGDEQQVGVMVVAHGNINGNFTKAHEELQICAQHLQINKPTYARTLYGEISFTHDLESISKRYQKLIVVPLFLYDGRLVNKVKQQMNDMVINTDIHFTPSINFDPILKQIINDRLESLMIPMKI	not soluble
MRRTTRYPVSGESSLWNVYKTVSFWKVMKNFIIIQIARYTPFLSVKNWLYRTFLRMKVGKKTSFALMVMPDIMFPEKITVGDNSIIGYNTTLLAHEYLIREYRLGEIVIGNEVMIGANTTILPGVRIGDGAIVSAGTLVHKDVPSGAFVGGNPMRVIYTKEQMEAREGSY	not soluble
MEIQDYTDSEFKHALARNLRSLTRGKKSSKQPIAILLGGQSGAGKTTIHRIKQKEFQGNIVIIDGDSFRSQHPHYLELQQEYGKDSVEYTKDFAGKMVESLVTKLSSLGYNLLIEGTLRTVDVPKKTAQLLKNKGYEVQLALIATKPELSYLSTLIRYEELYIINPNQARATPKEHHDFIVNHLVDNTRKLEELAIFERIQIYQRDRSCVYDSKENTTSAADVLQELFFGEWSQVEKEMLQVGEKRLNELLEK	soluble
MGSDKIHHHHHHMKRPISQQSVQVALGQAALPVGVLTFNKDGARESSTFAYHEAWLRSADRFEISPDLQLVQGQQFRKAPSRDDSIFPFAFADTEPDGWGCRVIARDHARRRKSAQEKGRDVPHAGLTEMDYLLGVDDLSRIGALRLADEAGNYLRSIEDGGRGTPPLLELGHLIGATRAVEMNRETAADLKYLRGRGTSLGGMRPKCTILDEDGQLAIGKFPSINDDRSVTRGEVLALHLAAAAGITVAQSRIVMSEEIPVALVRRFDRVTNGGRIPYLSAGSMLQASRQEEHAYTQIADCIIARCADPKRDLEELWRRLVFNLLITNVDDHVQNHGFLHVEHGLWRLAPAFDINPFPDKDPELKLWLNEDYGPVDSIEAVMNEARYFRLSADEAKRILGEVRNAVGDWKRVAKSAPVGMTDDDLDAFQPAFENGQTEAAAALL	not soluble
